Values joined by “and” are separate entries in the source; they are usually repeats but may differ in a detail not shown here. Equal entries are not always repeated.
Molecular target: His32 (UniProt position 32, AAQLPHDYCTT)
Test: NMR
Settings: 20 °C; McIlvaine (phosphate-citrate) buffer with 2 mM DTT; Apo five-phospho 4E-BP2. The folded β-domain is populated at neutral pH and undergoes non-cooperative acid denaturation as pH is lowered.

“Eukaryotic translation initiation factor 4E-binding protein 2 (4E-BP2), five-phospho form (5p-4E-BP2) (Homo sapiens (inferred; species of the construct not explicitly stated))” was tested. Which pKa did it give?
The pKa was 6.0 ± 0.2 and 5.9 ± 0.1 and 6.0 ± 0.3.

— paper PMC7305185
